{"source": "patent US20210388107A1", "about": "(BYONDIS B V, published 2021)", "key": {"[1]": {"target": "T1, human SIRPβ1v2, extracellular domain, Avi-FXa-Fc tag (human, biotinylated)", "T1 construct": "also called huSIRPβ1v2", "T1 sequence (chain, as listed by the source limits assumed)": "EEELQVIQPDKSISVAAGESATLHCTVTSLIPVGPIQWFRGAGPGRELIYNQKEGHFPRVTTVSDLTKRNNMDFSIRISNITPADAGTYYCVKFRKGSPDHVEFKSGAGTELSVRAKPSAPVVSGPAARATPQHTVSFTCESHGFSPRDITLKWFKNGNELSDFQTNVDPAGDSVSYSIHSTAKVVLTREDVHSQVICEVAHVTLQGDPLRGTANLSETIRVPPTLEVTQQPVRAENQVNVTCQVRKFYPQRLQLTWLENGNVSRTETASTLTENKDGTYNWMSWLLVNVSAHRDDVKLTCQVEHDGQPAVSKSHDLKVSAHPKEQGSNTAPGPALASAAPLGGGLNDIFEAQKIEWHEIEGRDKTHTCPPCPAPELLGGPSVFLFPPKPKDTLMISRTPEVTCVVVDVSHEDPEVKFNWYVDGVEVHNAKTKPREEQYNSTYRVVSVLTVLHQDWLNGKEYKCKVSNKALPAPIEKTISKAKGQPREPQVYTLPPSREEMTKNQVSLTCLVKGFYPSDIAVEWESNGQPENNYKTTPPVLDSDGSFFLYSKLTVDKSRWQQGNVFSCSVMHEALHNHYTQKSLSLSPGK", "test": "SPR, captured biotinylated antigen", "procedure": "(§1) Surface Plasmon Resonance (SPR) assay: Affinity analysis was performed by single cycle kinetics analysis on a Surface Plasmon Resonance apparatus (BiaCore™ T200 system, GE Life Sciences) at 25° C. […] For each step an association time of 150 sec was used, followed by a dissociation time of 600 sec after the highest concentration only, all at a flow rate of 30 μl/min. Regeneration was performed with 6 M guanidine-HCl, 0.25 M NaOH solution (120 sec with flow rate of 30 μl/min). […] Sensorgrams were fitted with a 1:1 Langmuir model for all tested anti-SIRP antibodies. The kinetic parameters (association rate [kₐ], dissociation rate [kd] and binding constant, also referred to as equilibrium dissociation constant or binding affinity [KD]) were calculated using BiaCore™ T200 evaluation software (v3.1)."}, "[2]": {"target": "T2, human SIRPβ1v1, extracellular domain, Avi-FXa-Fc tag (human, biotinylated)", "T2 construct": "also called huSIRPβ1v1", "T2 sequence (chain, as listed by the source limits assumed)": "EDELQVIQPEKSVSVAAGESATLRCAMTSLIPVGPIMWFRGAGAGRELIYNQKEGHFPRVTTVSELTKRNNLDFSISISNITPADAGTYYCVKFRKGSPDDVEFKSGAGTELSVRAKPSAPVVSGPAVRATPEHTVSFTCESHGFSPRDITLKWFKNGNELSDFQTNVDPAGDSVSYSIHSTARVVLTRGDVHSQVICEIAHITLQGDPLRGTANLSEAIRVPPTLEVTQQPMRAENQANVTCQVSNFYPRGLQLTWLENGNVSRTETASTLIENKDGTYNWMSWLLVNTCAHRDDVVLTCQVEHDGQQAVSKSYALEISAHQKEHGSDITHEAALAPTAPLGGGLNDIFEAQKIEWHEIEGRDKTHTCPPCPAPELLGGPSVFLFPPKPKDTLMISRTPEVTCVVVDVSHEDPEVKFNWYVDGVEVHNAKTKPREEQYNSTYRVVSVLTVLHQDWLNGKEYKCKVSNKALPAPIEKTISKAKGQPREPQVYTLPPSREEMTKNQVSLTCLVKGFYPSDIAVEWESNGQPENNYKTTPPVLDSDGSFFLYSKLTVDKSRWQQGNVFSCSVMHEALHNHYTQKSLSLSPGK", "test": "SPR, captured biotinylated antigen", "procedure": "as §1"}, "[3]": {"target": "T3, human SIRPαBIT, extracellular domain 1-370, Avi-FXa-Fc tag (human, biotinylated)", "T3 construct": "also called huSIRPαBIT; v1", "T3 sequence (chain, as listed by the source limits assumed)": "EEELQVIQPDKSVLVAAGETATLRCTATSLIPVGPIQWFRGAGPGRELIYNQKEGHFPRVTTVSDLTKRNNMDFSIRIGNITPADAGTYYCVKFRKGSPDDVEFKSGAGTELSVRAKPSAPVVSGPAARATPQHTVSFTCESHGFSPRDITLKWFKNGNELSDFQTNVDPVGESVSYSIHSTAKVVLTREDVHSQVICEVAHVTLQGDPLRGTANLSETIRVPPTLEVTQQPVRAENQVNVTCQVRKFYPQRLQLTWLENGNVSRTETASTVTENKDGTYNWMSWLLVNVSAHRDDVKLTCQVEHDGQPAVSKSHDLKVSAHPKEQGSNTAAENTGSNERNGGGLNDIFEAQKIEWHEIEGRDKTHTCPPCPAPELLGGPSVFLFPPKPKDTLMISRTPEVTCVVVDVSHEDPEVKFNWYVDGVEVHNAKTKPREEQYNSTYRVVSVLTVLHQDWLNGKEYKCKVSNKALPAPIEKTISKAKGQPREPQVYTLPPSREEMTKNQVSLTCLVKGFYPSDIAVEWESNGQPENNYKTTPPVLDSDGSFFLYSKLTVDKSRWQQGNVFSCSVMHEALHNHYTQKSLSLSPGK", "test": "SPR, captured biotinylated antigen", "procedure": "as §1"}, "[4]": {"target": "T4, human SIRPα1 extracellular domain 1-370, Avi-FXa-Fc tag (human, biotinylated)", "T4 construct": "also called huSIRPα1; v2", "T4 sequence (chain, as listed by the source limits assumed)": "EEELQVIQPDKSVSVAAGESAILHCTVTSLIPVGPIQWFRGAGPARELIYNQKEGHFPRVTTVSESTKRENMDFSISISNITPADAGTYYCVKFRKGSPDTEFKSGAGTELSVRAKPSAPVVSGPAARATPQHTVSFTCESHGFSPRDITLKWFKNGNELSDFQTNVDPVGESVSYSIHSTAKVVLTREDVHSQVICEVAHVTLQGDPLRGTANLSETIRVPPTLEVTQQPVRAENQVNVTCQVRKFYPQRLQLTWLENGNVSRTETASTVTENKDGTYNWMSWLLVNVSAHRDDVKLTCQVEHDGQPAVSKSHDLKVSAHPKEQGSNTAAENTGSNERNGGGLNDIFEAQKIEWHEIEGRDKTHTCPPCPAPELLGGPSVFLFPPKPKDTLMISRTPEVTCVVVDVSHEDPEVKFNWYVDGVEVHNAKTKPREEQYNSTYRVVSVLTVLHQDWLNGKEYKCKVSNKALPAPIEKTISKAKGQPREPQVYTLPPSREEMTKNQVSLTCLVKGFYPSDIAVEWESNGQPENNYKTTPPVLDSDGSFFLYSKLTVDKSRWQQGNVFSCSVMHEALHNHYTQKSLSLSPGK", "test": "SPR, captured biotinylated antigen", "procedure": "as §1"}, "[5]": {"target": "T5, human SIRPγ, extracellular domain, Avi-FXa-Fc tag (human, biotinylated)", "T5 construct": "also called huSIRPγ", "T5 sequence (chain, as listed by the source limits assumed)": "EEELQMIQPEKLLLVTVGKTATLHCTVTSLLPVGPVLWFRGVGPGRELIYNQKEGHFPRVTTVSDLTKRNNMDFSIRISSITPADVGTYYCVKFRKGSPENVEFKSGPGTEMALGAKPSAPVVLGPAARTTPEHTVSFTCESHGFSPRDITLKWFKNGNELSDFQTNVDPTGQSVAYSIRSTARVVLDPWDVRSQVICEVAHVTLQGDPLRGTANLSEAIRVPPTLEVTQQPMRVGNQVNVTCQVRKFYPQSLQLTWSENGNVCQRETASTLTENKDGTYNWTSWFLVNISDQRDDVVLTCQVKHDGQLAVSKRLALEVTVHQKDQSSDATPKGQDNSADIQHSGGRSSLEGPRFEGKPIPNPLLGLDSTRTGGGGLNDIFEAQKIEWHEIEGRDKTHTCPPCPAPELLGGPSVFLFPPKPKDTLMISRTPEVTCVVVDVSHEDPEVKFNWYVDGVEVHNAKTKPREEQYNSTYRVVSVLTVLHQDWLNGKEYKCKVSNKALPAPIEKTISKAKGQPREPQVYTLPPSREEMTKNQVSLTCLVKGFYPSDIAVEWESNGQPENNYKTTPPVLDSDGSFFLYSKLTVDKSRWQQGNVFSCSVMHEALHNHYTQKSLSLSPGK", "test": "SPR, captured biotinylated antigen", "procedure": "as §1"}, "[6]": {"target": "T6, cynomolgus monkey SIRPα, extracellular domain, Avi-FXa-Fc tag (cynomolgus monkey, biotinylated)", "T6 construct": "also called cySIRPα", "test": "SPR, captured biotinylated antigen; sub-optimal fit", "procedure": "as §1"}, "[7]": {"target": "T7, cynomolgus monkey SIRPα expressed on ExpiCHO-S cells (cynomolgus monkey, UniProt A0A2K5VYQ9 31-507)", "T7 construct": "whole, on cells; also called cySIRPα; ExpiCHO-S (cySIRPα)", "T7 sequence": "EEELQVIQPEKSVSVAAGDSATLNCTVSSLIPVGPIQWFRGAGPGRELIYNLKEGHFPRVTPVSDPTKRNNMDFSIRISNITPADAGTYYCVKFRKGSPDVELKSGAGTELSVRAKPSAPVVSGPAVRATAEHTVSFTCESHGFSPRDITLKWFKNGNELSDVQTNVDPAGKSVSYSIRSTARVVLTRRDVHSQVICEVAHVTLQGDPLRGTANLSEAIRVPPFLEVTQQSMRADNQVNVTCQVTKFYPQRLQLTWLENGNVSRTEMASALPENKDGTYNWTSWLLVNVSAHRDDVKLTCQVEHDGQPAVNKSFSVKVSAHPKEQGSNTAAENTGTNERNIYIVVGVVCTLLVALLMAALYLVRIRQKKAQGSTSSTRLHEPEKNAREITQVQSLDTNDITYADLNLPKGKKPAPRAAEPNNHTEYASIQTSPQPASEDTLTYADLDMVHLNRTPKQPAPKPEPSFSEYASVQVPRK", "test": "flow cytometry, ExpiCHO-S cells", "procedure": "(§2) After an incubation time of 30 min at 4° C., the cells were washed three times with ice-cold FACS buffer and 50 μl/well secondary mAb (for human antibodies, AffiniPure F(ab′)₂ fragment Goat-anti-human IgG-APC, 1:6,000 dilution, Jackson Immuno Research was added and for mouse antibodies, AffiniPure Fab fragment Goat Anti-Mouse IgG (H+L)-Alexa Fluor 488, 1:1,000 dilution, Jackson Immuno Research was added). After 30 min at 4° C., cells were washed twice and resuspended in 150 μl FACS buffer. Fluorescence intensities were determined by flow cytometry (BD FACSVerse, Franklin Lakes, N.J.) and indicated as the median fluorescence intensity (MFI-Median) for U937 cells and the mean fluorescence intensity (MFI-Mean) for ExpiCHO-S cells. Curves were fitted by nonlinear regression using the sigmoidal dose-response equation with variable slope (four parameters) in GraphPad Prism (version 7.02 for Windows, GraphPad, San Diego, Calif.). EC₅₀ values were calculated as the concentration in μg/ml that gives a response half way between bottom and top of the curve, when using a 4-parameter logistic fit."}, "[8]": {"target": "T8, human SIRPα1 expressed on cells (human, UniProt P78324 31-504)", "T8 construct": "whole, on cells; also called huSIRPα1; ExpiCHO-S (huSIRPα1)", "test": "flow cytometry, ExpiCHO-S cells", "procedure": "as §2"}, "[9]": {"target": "T9, human SIRPαBIT expressed on cells (human, UniProt P78324 31-504)", "T9 construct": "endogenous on U937 cells or transiently expressed on ExpiCHO-S cells; in the SHP-1 assay a ProLink-tagged form on Jurkat cells; also called huSIRPαBIT; U937 cells (huSIRPαBIT)", "test": "flow cytometry, ExpiCHO-S cells", "procedure": "as §2"}, "[10]": {"target": "T10, human SIRPγ on human CD3+ T-cells (human, UniProt Q9P1W8 29-387)", "T10 construct": "whole, on cells", "T10 sequence (Q9P1W8 29-387)": "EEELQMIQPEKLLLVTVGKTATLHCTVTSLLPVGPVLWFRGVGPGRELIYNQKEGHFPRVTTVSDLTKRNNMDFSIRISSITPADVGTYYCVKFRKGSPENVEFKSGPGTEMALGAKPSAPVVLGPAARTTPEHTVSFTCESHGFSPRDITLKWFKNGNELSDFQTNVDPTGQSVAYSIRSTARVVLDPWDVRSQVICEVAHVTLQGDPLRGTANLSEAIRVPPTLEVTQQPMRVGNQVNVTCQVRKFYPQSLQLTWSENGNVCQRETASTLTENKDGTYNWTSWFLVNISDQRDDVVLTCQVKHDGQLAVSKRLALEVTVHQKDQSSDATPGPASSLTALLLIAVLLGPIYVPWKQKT", "test": "flow cytometry on CD3+ T-cells in PBMC of two healthy individuals, % of positive cells", "procedure": "(§3) Flow Cytometry assay: Peripheral mononuclear cells (PBMC) were isolated from fresh blood of healthy individuals using Percoll gradient. […] Cells (200,000 cells/well in a 96-well plate) were subsequently incubated in the presence of tested antibodies or control conditions with secondary antibodies only (secondary goat anti-human IgG Alexa 633 F(ab′)₂ fragment, dilution 1:1000, Jackson Immuno Research, and secondary goat anti-mouse IgG Alexa 633 F(ab′)₂ fragment, dilution 1:250, Invitrogen) for 30 min on ice. After that, cells were washed with FACS buffer and resuspended in a mixture of anti-human CD3 FITC antibody (dilution 1:100, Invitrogen) with respective secondary antibody (either anti-human or anti-mouse) and incubated for 30 min in the dark on ice. Afterwards the cells were washed with FACS buffer and resuspended in 150 μl of FACS buffer and fluorescence intensities were determined by flow cytometry (LSRII HTS or LSRFortessa, BD Biosciences, CA, USA) and indicated as the median fluorescence intensity (MFI-Median) and percentage of positive cells."}, "[11]": {"target": "T9, human SIRPαBIT expressed on cells", "test": "flow cytometry, U937 cells", "procedure": "as §2"}, "[12]": {"target": "T6, cynomolgus monkey SIRPα, extracellular …", "test": "SPR, captured biotinylated antigen", "procedure": "as §1"}, "[13]": {"target": "T10, human SIRPγ on human CD3+ T-cells", "test": "flow cytometry on CD3+ T-cells in PBMC of two healthy individuals, MFI", "procedure": "as §3"}}, "data": [{"binder": "humanized anti-SIRPα antibody 5 (antibody, human IgG1, kappa, L234A L235A, V domains shown, human IgG1 LALA, kappa; also called mAb 5) VH: RQLVESGGGLVQPGGSLRLSCAASGFSLSSHGISWVRQAPGKGLEYIGTIGTGVITYYASWAKGRFTGSKTSSTAYLQMTSLRAEDTAVYYCARGSAWNDPFDYWGQGTLVTVSS VL: DIEMTQSPSSVSASVGDRVTLTCQASQSVYGNNDLAWYQQKPGQAPKLLIYLASTLATGVPSRFSGSGSGTDFTLTISSLQPEDFATYYCLGGGDDEADNVFGGGTKVEIKR", "values": [{"measurement": "Kd", "setting": "[1]", "value": 2.97, "unit": "nM"}, {"measurement": "Kd", "setting": "[2]", "value": 0.593, "unit": "nM"}, {"measurement": "Kd", "setting": "[3]", "value": 0.142, "unit": "nM"}, {"measurement": "Kd", "setting": "[4]", "value": "< 0.01", "unit": "nM"}, {"measurement": "binding result", "setting": "[5]", "value": "no binding (tested: below 10 RU cut-off; up to 1600 ng/ml)"}, {"measurement": "Kd", "setting": "[6]", "value": 76.2, "unit": "nM"}, {"measurement": "EC50", "setting": "[7]", "value": 1.91, "unit": "µg/mL"}, {"measurement": "EC50", "setting": "[8]", "value": 0.22, "unit": "µg/mL"}, {"measurement": "EC50", "setting": "[9]", "value": 0.12, "unit": "µg/mL"}, {"measurement": "binding result", "setting": "[10]", "value": "no binding"}, {"measurement": "EC50", "setting": "[11]", "value": 1.6, "unit": "µg/mL"}]}, {"binder": "humanized anti-SIRPα antibody 8 (antibody, human IgG1, kappa, L234A L235A, V domains shown, human IgG1 LALA, kappa; also called mAb 8) VH: RQLVESGGGLVQPGGSLRLSCAASGFSLSSHGISWVRQAPGKGLEYIGTIGTGVITYYASWAKGRFTGSKTSSTAYLQMTSLRAEDTAVYYCARGSAWNDPFDYWGQGTLVTVSS VL: DIVMTQSPSSLSASVGDRVTITCQASQSVYGNNDLAWYQQKPGQAPKLLIYLASTLATGVPSRFSGSGSGTDFTLTISSLQPEDFATYYCLGGGDDEADNTFGQGTKVEIKR", "values": [{"measurement": "Kd", "setting": "[1]", "value": 1.84, "unit": "nM"}, {"measurement": "Kd", "setting": "[2]", "value": 0.661, "unit": "nM"}, {"measurement": "Kd", "setting": "[3]", "value": 0.152, "unit": "nM"}, {"measurement": "Kd", "setting": "[4]", "value": "< 0.01", "unit": "nM"}, {"measurement": "binding result", "setting": "[5]", "value": "no binding (tested: below 10 RU cut-off; up to 1600 ng/ml)"}, {"measurement": "Kd", "setting": "[6]", "value": 1.88, "unit": "nM"}, {"measurement": "EC50", "setting": "[7]", "value": 2.44, "unit": "µg/mL"}, {"measurement": "EC50", "setting": "[8]", "value": 0.17, "unit": "µg/mL"}, {"measurement": "EC50", "setting": "[9]", "value": 0.14, "unit": "µg/mL"}, {"measurement": "binding result", "setting": "[10]", "value": "no binding"}, {"measurement": "EC50", "setting": "[11]", "value": 1.04, "unit": "µg/mL"}]}, {"binder": "humanized anti-SIRPα antibody 13 (antibody, human IgG1, kappa, L234A L235A, human IgG1 LALA, kappa; also called mAb 13) heavy: not shown light: DIQMTQSPSSLSASVGDRVTITCRASQSINSYLAWYQQKPGKAPKLLIYSASFLYSGVPSRFSGSGSGTDFTLTISSLQPEDFATYYCQSWHYISRSYTFGQGTKVEIKRTVAAPSVFIFPPSDEQLKSGTASVVCLLNNFYPREAKVQWKVDNALQSGNSQESVTEQDSKDSTYSLSSTLTLSKADYEKHKVYACEVTHQGLSSPVTKSFNRGEC", "values": [{"measurement": "Kd", "setting": "[1]", "value": 2.78, "unit": "nM"}, {"measurement": "Kd", "setting": "[3]", "value": "< 0.01", "unit": "nM"}, {"measurement": "Kd", "setting": "[12]", "value": 2.05, "unit": "nM"}, {"measurement": "Kd", "setting": "[4]", "value": 1.41, "unit": "nM"}, {"measurement": "binding result", "setting": "[5]", "value": "no binding (tested: below 10 RU cut-off; up to 1600 ng/ml)"}, {"measurement": "EC50", "setting": "[7]", "value": 0.11, "unit": "µg/mL"}, {"measurement": "EC50", "setting": "[8]", "value": 0.27, "unit": "µg/mL"}, {"measurement": "EC50", "setting": "[9]", "value": 0.28, "unit": "µg/mL"}, {"measurement": "binding result", "setting": "[13]", "value": "no binding"}, {"measurement": "EC50", "setting": "[11]", "value": 0.08, "unit": "µg/mL"}]}]}
